IC50 and Kd data for 8 sequences are collected here from the Immune Epitope Database (IEDB).

The target of assay [1] is HLA-B*08:01. Put plainly: IEDB peptide-MHC binding, purified MHC/competitive/fluorescence; ≥ and ≤ were set here for values at or beyond the usual limits of such assays. Particulars: source organism: Zaire ebolavirus.
The target in assay [2] is HLA-A*02:01. Described as above. Particulars: source organism: Zaire ebolavirus.
Assay [3] concerns the target HLA-B*08:01. Put plainly: IEDB peptide-MHC binding, purified MHC/competitive/fluorescence; filed as Kd, often an IC50 or EC50 that approximates it; ≥ and ≤ were set here for values at or beyond the usual limits of such assays.
In another assay the target is HLA-B*27:03. Described as above. Particulars: source organism: Araucaria virus.
The target in assay [4] is HLA-A*02:01. The description is as above.
Assay [5] concerns the target HLA-B*57:01. The description is as above. Conditions: source organism: Araucaria virus.
Assay [6] addresses HLA-A*26:01. The description is as above. Particulars: source organism: Araucaria virus.
Assay [7] concerns the target HLA-B*39:01. Described as above. Particulars: source organism: Araucaria virus.
A further assay has as its target HLA-B*51:01. The assay is described as above. Conditions: source organism: Araucaria virus.
Assay [8] has as its target HLA-B*15:01. The description is as above. Particulars: source organism: Araucaria virus.
For assay [9], the target named is HLA-B*46:01. The description is as above. Conditions: source organism: Araucaria virus.
For assay [10], the target named is HLA-A*69:01. The assay is described as above.
A further assay concerns the target HLA-B*18:01. Described as above. Particulars: source organism: Araucaria virus.
For assay [11], the target named is HLA-A*02:12. Put plainly: IEDB peptide-MHC binding, purified MHC/direct/fluorescence; filed as Kd, often an IC50 or EC50 that approximates it; ≥ and ≤ were set here for values at or beyond the usual limits of such assays. Conditions: source organism: Choclo virus.
Assay [12] addresses HLA-A*02:03. The assay is described as above. Conditions: source organism: Choclo virus.
In assay [13] the target is HLA-A*02:16. The description is as above. Conditions: source organism: Choclo virus.
Assay [14] addresses HLA-A*03:01. Described as above.
The target of assay [15] is HLA-A*02:19. The description is as above. Conditions: source organism: Choclo virus.
In assay [16] the target is HLA-A*02:11. The description is as above. Conditions: source organism: Choclo virus.
The target in the next assay is HLA-A*02:06. Put plainly: IEDB peptide-MHC binding, purified MHC/competitive/fluorescence; filed as Kd, often an IC50 or EC50 that approximates it; ≥ and ≤ were set here for values at or beyond the usual limits of such assays.
A further assay deals with HLA-A*01:01. The assay can be described thus: IEDB peptide-MHC binding, purified MHC/direct/fluorescence; filed as Kd, often an IC50 or EC50 that approximates it; ≥ and ≤ were set here for values at or beyond the usual limits of such assays.
The target in assay [17] is HLA-A*11:01. The description is as above.
A further assay addresses HLA-B*08:02. Described as above.
A further assay concerns the target HLA-B*15:17. The description is as above.
A further assay addresses HLA-B*58:01. Described as above.
Another assay concerns the target HLA-A*31:01. The assay is described as above.
Assay [18] has as its target HLA-B*57:01. The description is as above.
Assay [19] concerns the target HLA-A*26:01. Described as above.
Assay [20] deals with HLA-B*39:01. Described as above. Particulars: source organism: Burkholderia mallei ATCC 23344.
A further assay addresses HLA-B*27:05. The description is as above.
The target of the next assay is HLA-B*48:01. Described as above.
Assay [21] addresses HLA-B*15:01. The assay is described as above.
The target of another assay is HLA-B*40:01. The assay is described as above.
For assay [22], the target named is HLA-A*69:01. The description is as above. Conditions: source organism: Burkholderia mallei.
For assay [23], the target named is HLA-A*02:12. The assay can be described thus: IEDB peptide-MHC binding, purified MHC/competitive/fluorescence; filed as Kd, often an IC50 or EC50 that approximates it; ≥ and ≤ were set here for values at or beyond the usual limits of such assays. Conditions: source organism: Desulfatibacillum alkenivorans AK-01.
For assay [24], the target named is HLA-A*02:03. Described as above. Conditions: source organism: Desulfatibacillum alkenivorans AK-01.
Assay [25] deals with HLA-A*02:16. The assay is described as above. Particulars: source organism: Desulfatibacillum alkenivorans AK-01.
Assay [26] deals with HLA-A*02:19. The description is as above. Particulars: source organism: Desulfatibacillum alkenivorans AK-01.
Assay [27] concerns the target HLA-A*02:11. Described as above. Conditions: source organism: Desulfatibacillum alkenivorans AK-01.
Another assay concerns the target HLA-A*24:02. Put plainly: IEDB peptide-MHC binding, purified MHC/competitive/fluorescence; ≥ and ≤ were set here for values at or beyond the usual limits of such assays. Conditions: source organism: Zaire ebolavirus.
Assay [28] has as its target HLA-A*11:01. The assay is described as above. Particulars: source organism: Zaire ebolavirus.
For assay [29], the target named is HLA-A*03:01. The assay is described as above. Particulars: source organism: Zaire ebolavirus.
Assay [30] concerns the target HLA-B*46:01. The assay can be described thus: IEDB peptide-MHC binding, purified MHC/direct/fluorescence; filed as Kd, often an IC50 or EC50 that approximates it; ≥ and ≤ were set here for values at or beyond the usual limits of such assays. Particulars: source organism: Cowpox virus.
The mark [31] stands for this setting: source organism: Araucaria virus.
[32] abbreviates: source organism: Burkholderia mallei NCTC 10229.
The mark [33] stands for this setting: source organism: Burkholderia mallei.
[34] abbreviates: source organism: Burkholderia mallei ATCC 23344.
Where [35] appears, read: source organism: Desulfatibacillum alkenivorans AK-01.
Where [36] appears, read: source organism: Vaccinia virus Copenhagen.

As usually defined, the IC50 is the midpoint of a concentration-inhibition curve. The low end stands for greater potency in that assay, the high end for weaker potency in that assay. Regarding EGHGFRFEV, the IC50 with HLA-B*08:01 [1] came to 69.3 µM; with HLA-A*02:01 [2], 28.1 µM.
By Kd is commonly meant the equilibrium constant for the complex coming apart. High values mean a looser complex, low ones a tighter complex. With ELRQLAQSL, the dissociation constant (Kd) with HLA-B*08:01 [3] (setting [31]) was 0.156 µM; with HLA-B*27:03, at least 20 µM; in the assay with HLA-A*02:01 [4] (setting [31]) it was at least 20 µM; with HLA-B*57:01 [5], at least 20 µM; with HLA-A*26:01 [6], at least 20 µM; in the assay with HLA-B*39:01 [7] it was at least 20 µM. The Kd in the assay with HLA-B*51:01, with HLA-B*15:01 [8], with HLA-B*46:01 [9], with HLA-A*69:01 [10] (setting [31]), with HLA-B*18:01 and with HLA-A*02:12 [11] was at least 20 µM in each case. Besides, the Kd with HLA-A*02:03 [12], with HLA-A*02:16 [13], with HLA-A*03:01 [14] (source organism: Choclo virus), in the assay with HLA-A*02:19 [15] and in the assay with HLA-A*02:11 [16] was at least 20 µM each time.
On to IYDFYNAEY, for which the Kd in the assay with HLA-A*02:06 (setting [32]) was 0.0534 µM; with HLA-A*02:01 [4] (setting [32]) it was 0.138 µM; in the assay with HLA-A*01:01 (setting [33]) it was 1.76 µM; with HLA-A*11:01 [17] (setting [33]), at least 20 µM; with HLA-B*08:02 (setting [34]), at least 20 µM; with HLA-B*15:17 (setting [33]) it was 5.09 µM. Further, the Kd with HLA-B*58:01 (setting [33]) was at least 20 µM; in the assay with HLA-A*31:01 (setting [33]), at least 20 µM; in the assay with HLA-B*57:01 [18] (setting [33]), at least 20 µM; in the assay with HLA-A*26:01 [19] (setting [34]), 0.091 µM; with HLA-B*39:01 [20], at least 20 µM; with HLA-B*27:05 (setting [33]), at least 20 µM. The Kd with HLA-B*48:01 (setting [33]), with HLA-A*03:01 [14] (setting [33]), with HLA-B*15:01 [21] (setting [33]), in the assay with HLA-B*40:01 (setting [33]) and with HLA-A*69:01 [22] was at least 20 µM throughout.
KLERRMENL registered a Kd with HLA-B*08:01 [3] (source organism: Influenza A virus (A/Osaka/930/88(H1N1))) of at least 20 µM.
On to KLGKAGYVV, for which the dissociation constant Kd with HLA-A*02:12 [23] was determined as 0.0235 µM; in the assay with HLA-A*02:06 (setting [35]), 0.00192 µM; in the assay with HLA-A*02:03 [24], 0.00229 µM; in the assay with HLA-A*02:01 [4] (setting [35]), 0.384 µM; with HLA-A*02:16 [25], 0.00177 µM; with HLA-A*02:19 [26] it was 0.117 µM. In addition, the Kd is at least 20 µM with HLA-A*69:01 [10] (setting [35]) and 0.0013 µM with HLA-A*02:11 [27].
For LFQRTFSIP, the IC50 in the assay with HLA-B*08:01 [1] was at least 270 µM; with HLA-A*02:01 [2], at least 72.9 µM; with HLA-A*24:02, 1.04 µM.
MVIFRLMRT: the concentration for half-maximal inhibition (IC50) is at least 77.6 µM with HLA-B*08:01 [1], at least 177 µM with HLA-A*11:01 [28], 0.478 µM with HLA-A*02:01 [2] and at least 96.6 µM with HLA-A*03:01 [29].
In the case of YKDANISMY, the equilibrium dissociation constant (Kd) was 0.107 µM with HLA-A*02:06 (setting [36]); 0.113 µM with HLA-A*02:01 [4] (setting [36]); 1.04 µM with HLA-A*69:01 [10] (setting [36]); at least 20 µM with HLA-A*01:01 (source organism: Cowpox virus); at least 20 µM with HLA-A*11:01 [17] (source organism: Cowpox virus); at least 20 µM with HLA-B*08:02 (source organism: Variola virus). Moreover, the Kd in the assay with HLA-B*15:17 (source organism: Cowpox virus), with HLA-B*58:01 (source organism: Cowpox virus), with HLA-A*31:01 (source organism: Cowpox virus), in the assay with HLA-B*57:01 [18] (source organism: Cowpox virus), with HLA-A*26:01 [19] (source organism: Variola virus) and in the assay with HLA-B*27:05 (source organism: Cowpox virus) was at least 20 µM each time. Besides, the dissociation constant (Kd) with HLA-B*48:01 (source organism: Cowpox virus), with HLA-A*03:01 [14] (source organism: Cowpox virus), with HLA-B*15:01 [21] (source organism: Cowpox virus), with HLA-B*40:01 (source organism: Cowpox virus) and in the assay with HLA-B*46:01 [30] was at least 20 µM each time.
